Data: patent US20140087995A1 (published 2014)
Numbered stars: 1 amine (or outer) side, 2 acyl side, 3 side chain; on linkers, the order of the positions; unused ones are H or OH. Bridge positions count the residues as written; N and C are the ends. Side chains are listed from the residue outwards. Ends that are not written are not given here. * marks the point of attachment. C20 diacid = O=C(O)CCCCCCCCCCCCCCCCCCC(=O)*; γGlu = O=C(O)[C@H](CCC(=O)[*:2])N[*:1]; AEEA = NCCOCCOCC(=O)O

T1: human amylin receptor (human calcitonin receptor co-expressed with RAMP-3; amylin 3(a) receptor) (human, UniProt P30988 25-474; O60896 24-148, limits assumed)
T1 construct: whole, on cells; Used as cell membranes prepared from Amylin 3(a)/CRE-luc BHK cells (Assay V), not as intact cells; also called hAmylin-R; hAmylinR
T1 sequence (looked up) 1: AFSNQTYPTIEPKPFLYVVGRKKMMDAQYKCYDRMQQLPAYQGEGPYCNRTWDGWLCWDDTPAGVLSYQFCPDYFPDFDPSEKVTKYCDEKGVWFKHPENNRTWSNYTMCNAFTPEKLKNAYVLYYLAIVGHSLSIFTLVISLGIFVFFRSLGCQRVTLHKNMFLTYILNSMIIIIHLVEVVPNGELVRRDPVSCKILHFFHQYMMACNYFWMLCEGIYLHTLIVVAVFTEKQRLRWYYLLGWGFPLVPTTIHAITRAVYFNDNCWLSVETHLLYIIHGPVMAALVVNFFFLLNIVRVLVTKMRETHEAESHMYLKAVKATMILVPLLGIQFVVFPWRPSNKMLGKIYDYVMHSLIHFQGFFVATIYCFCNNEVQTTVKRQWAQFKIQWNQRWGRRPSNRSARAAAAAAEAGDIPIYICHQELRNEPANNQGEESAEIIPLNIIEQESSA
T1 sequence (looked up) 2: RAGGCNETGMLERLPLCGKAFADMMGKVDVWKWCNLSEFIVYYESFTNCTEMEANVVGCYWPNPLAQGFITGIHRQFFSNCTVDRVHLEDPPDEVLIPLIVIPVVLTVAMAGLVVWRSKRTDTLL

T2: human calcitonin receptor (human, UniProt P30988 25-474)
T2 construct: whole, on cells; Used as cell membranes prepared from the transfected BHK cells (Assay VII), not as intact cells; also called hCTR; hCT
T2 sequence (looked up): T1 sequence (looked up) 1

B1: N^ε1-[2-[2-[2-[[(4S)-4-carboxy-4-(19-carboxynonadecanoylamino)butanoyl]amino]ethoxy]ethoxy]acetyl]-[Arg17,Pro21,Pro27,Pro34]-h-amylin (peptide)
peptide: K([AEEA-γGlu-C20 diacid])CNTATCATQRLANFLRHSSPNFGAIPSSTNVGPNTY-NH2
modifications: disulfide 2-7; N-terminus assumed
SMILES: CC[C@H](C)[C@H](NC(=O)[C@H](C)NC(=O)CNC(=O)[C@H](Cc1ccccc1)NC(=O)[C@H](CC(N)=O)NC(=O)[C@@H]1CCCN1C(=O)[C@H](CO)NC(=O)[C@H](CO)NC(=O)[C@H](Cc1c[nH]cn1)NC(=O)[C@H](CCCNC(=N)N)NC(=O)[C@H](CC(C)C)NC(=O)[C@H](Cc1ccccc1)NC(=O)[C@H](CC(N)=O)NC(=O)[C@H](C)NC(=O)[C@H](CC(C)C)NC(=O)[C@H](CCCNC(=N)N)NC(=O)[C@H](CCC(N)=O)NC(=O)[C@@H](NC(=O)[C@H](C)NC(=O)[C@@H]1CSSC[C@H](NC(=O)[C@@H](N)CCCCNC(=O)COCCOCCNC(=O)CC[C@H](NC(=O)CCCCCCCCCCCCCCCCCCC(=O)O)C(=O)O)C(=O)N[C@@H](CC(N)=O)C(=O)N[C@@H]([C@@H](C)O)C(=O)N[C@@H](C)C(=O)N[C@@H]([C@@H](C)O)C(=O)N1)[C@@H](C)O)C(=O)N1CCC[C@H]1C(=O)N[C@@H](CO)C(=O)N[C@@H](CO)C(=O)N[C@H](C(=O)N[C@@H](CC(N)=O)C(=O)N[C@H](C(=O)NCC(=O)N1CCC[C@H]1C(=O)N[C@@H](CC(N)=O)C(=O)N[C@H](C(=O)N[C@@H](Cc1ccc(O)cc1)C(N)=O)[C@@H](C)O)C(C)C)[C@@H](C)O
notes: also called compound 50
B2: N^ε1-[(4S)-4-carboxy-4-(19-carboxynonadecanoylamino)butanoyl]-[Arg14,Arg17,Pro21,Pro27,Pro34]-h-amylin (peptide)
peptide: K([γGlu-C20 diacid])CNTATCATQRLARFLRHSSPNFGAIPSSTNVGPNTY-NH2
modifications: disulfide 2-7; N-terminus assumed
SMILES: CC[C@H](C)[C@H](NC(=O)[C@H](C)NC(=O)CNC(=O)[C@H](Cc1ccccc1)NC(=O)[C@H](CC(N)=O)NC(=O)[C@@H]1CCCN1C(=O)[C@H](CO)NC(=O)[C@H](CO)NC(=O)[C@H](Cc1c[nH]cn1)NC(=O)[C@H](CCCNC(=N)N)NC(=O)[C@H](CC(C)C)NC(=O)[C@H](Cc1ccccc1)NC(=O)[C@H](CCCNC(=N)N)NC(=O)[C@H](C)NC(=O)[C@H](CC(C)C)NC(=O)[C@H](CCCNC(=N)N)NC(=O)[C@H](CCC(N)=O)NC(=O)[C@@H](NC(=O)[C@H](C)NC(=O)[C@@H]1CSSC[C@H](NC(=O)[C@@H](N)CCCCNC(=O)CC[C@H](NC(=O)CCCCCCCCCCCCCCCCCCC(=O)O)C(=O)O)C(=O)N[C@@H](CC(N)=O)C(=O)N[C@@H]([C@@H](C)O)C(=O)N[C@@H](C)C(=O)N[C@@H]([C@@H](C)O)C(=O)N1)[C@@H](C)O)C(=O)N1CCC[C@H]1C(=O)N[C@@H](CO)C(=O)N[C@@H](CO)C(=O)N[C@H](C(=O)N[C@@H](CC(N)=O)C(=O)N[C@H](C(=O)NCC(=O)N1CCC[C@H]1C(=O)N[C@@H](CC(N)=O)C(=O)N[C@H](C(=O)N[C@@H](Cc1ccc(O)cc1)C(N)=O)[C@@H](C)O)C(C)C)[C@@H](C)O
notes: also called compound 65
B3: N^ε1-[2-[2-[2-[[(4S)-4-carboxy-4-(19-carboxynonadecanoylamino)butanoyl]amino]ethoxy]ethoxy]acetyl]-[His14,Arg17,Pro21,Pro27,Pro34]-h-amylin (peptide)
peptide: K([AEEA-γGlu-C20 diacid])CNTATCATQRLAHFLRHSSPNFGAIPSSTNVGPNTY-NH2
modifications: disulfide 2-7; N-terminus assumed
SMILES: CC[C@H](C)[C@H](NC(=O)[C@H](C)NC(=O)CNC(=O)[C@H](Cc1ccccc1)NC(=O)[C@H](CC(N)=O)NC(=O)[C@@H]1CCCN1C(=O)[C@H](CO)NC(=O)[C@H](CO)NC(=O)[C@H](Cc1c[nH]cn1)NC(=O)[C@H](CCCNC(=N)N)NC(=O)[C@H](CC(C)C)NC(=O)[C@H](Cc1ccccc1)NC(=O)[C@H](Cc1c[nH]cn1)NC(=O)[C@H](C)NC(=O)[C@H](CC(C)C)NC(=O)[C@H](CCCNC(=N)N)NC(=O)[C@H](CCC(N)=O)NC(=O)[C@@H](NC(=O)[C@H](C)NC(=O)[C@@H]1CSSC[C@H](NC(=O)[C@@H](N)CCCCNC(=O)COCCOCCNC(=O)CC[C@H](NC(=O)CCCCCCCCCCCCCCCCCCC(=O)O)C(=O)O)C(=O)N[C@@H](CC(N)=O)C(=O)N[C@@H]([C@@H](C)O)C(=O)N[C@@H](C)C(=O)N[C@@H]([C@@H](C)O)C(=O)N1)[C@@H](C)O)C(=O)N1CCC[C@H]1C(=O)N[C@@H](CO)C(=O)N[C@@H](CO)C(=O)N[C@H](C(=O)N[C@@H](CC(N)=O)C(=O)N[C@H](C(=O)NCC(=O)N1CCC[C@H]1C(=O)N[C@@H](CC(N)=O)C(=O)N[C@H](C(=O)N[C@@H](Cc1ccc(O)cc1)C(N)=O)[C@@H](C)O)C(C)C)[C@@H](C)O
notes: also called compound 68
B4: N^ε1-[(4S)-4-carboxy-4-(19-carboxynonadecanoylamino)butanoyl]-[Arg14,Arg17,Pro21,Pro27,Pro31]-h-amylin (peptide)
peptide: K([γGlu-C20 diacid])CNTATCATQRLARFLRHSSPNFGAIPSSTPVGSNTY-NH2
modifications: disulfide 2-7; N-terminus assumed
SMILES: CC[C@H](C)[C@H](NC(=O)[C@H](C)NC(=O)CNC(=O)[C@H](Cc1ccccc1)NC(=O)[C@H](CC(N)=O)NC(=O)[C@@H]1CCCN1C(=O)[C@H](CO)NC(=O)[C@H](CO)NC(=O)[C@H](Cc1c[nH]cn1)NC(=O)[C@H](CCCNC(=N)N)NC(=O)[C@H](CC(C)C)NC(=O)[C@H](Cc1ccccc1)NC(=O)[C@H](CCCNC(=N)N)NC(=O)[C@H](C)NC(=O)[C@H](CC(C)C)NC(=O)[C@H](CCCNC(=N)N)NC(=O)[C@H](CCC(N)=O)NC(=O)[C@@H](NC(=O)[C@H](C)NC(=O)[C@@H]1CSSC[C@H](NC(=O)[C@@H](N)CCCCNC(=O)CC[C@H](NC(=O)CCCCCCCCCCCCCCCCCCC(=O)O)C(=O)O)C(=O)N[C@@H](CC(N)=O)C(=O)N[C@@H]([C@@H](C)O)C(=O)N[C@@H](C)C(=O)N[C@@H]([C@@H](C)O)C(=O)N1)[C@@H](C)O)C(=O)N1CCC[C@H]1C(=O)N[C@@H](CO)C(=O)N[C@@H](CO)C(=O)N[C@H](C(=O)N1CCC[C@H]1C(=O)N[C@H](C(=O)NCC(=O)N[C@@H](CO)C(=O)N[C@@H](CC(N)=O)C(=O)N[C@H](C(=O)N[C@@H](Cc1ccc(O)cc1)C(N)=O)[C@@H](C)O)C(C)C)[C@@H](C)O
notes: also called compound 63
B5: N^ε1-[2-[2-[2-[[(4S)-4-carboxy-4-(19-carboxynonadecanoylamino)butanoyl]amino]ethoxy]ethoxy]acetyl]-[His14,Arg17,Pro21,Pro27,Pro31]-h-amylin (peptide)
peptide: K([AEEA-γGlu-C20 diacid])CNTATCATQRLAHFLRHSSPNFGAIPSSTPVGSNTY-NH2
modifications: disulfide 2-7; N-terminus assumed
SMILES: CC[C@H](C)[C@H](NC(=O)[C@H](C)NC(=O)CNC(=O)[C@H](Cc1ccccc1)NC(=O)[C@H](CC(N)=O)NC(=O)[C@@H]1CCCN1C(=O)[C@H](CO)NC(=O)[C@H](CO)NC(=O)[C@H](Cc1c[nH]cn1)NC(=O)[C@H](CCCNC(=N)N)NC(=O)[C@H](CC(C)C)NC(=O)[C@H](Cc1ccccc1)NC(=O)[C@H](Cc1c[nH]cn1)NC(=O)[C@H](C)NC(=O)[C@H](CC(C)C)NC(=O)[C@H](CCCNC(=N)N)NC(=O)[C@H](CCC(N)=O)NC(=O)[C@@H](NC(=O)[C@H](C)NC(=O)[C@@H]1CSSC[C@H](NC(=O)[C@@H](N)CCCCNC(=O)COCCOCCNC(=O)CC[C@H](NC(=O)CCCCCCCCCCCCCCCCCCC(=O)O)C(=O)O)C(=O)N[C@@H](CC(N)=O)C(=O)N[C@@H]([C@@H](C)O)C(=O)N[C@@H](C)C(=O)N[C@@H]([C@@H](C)O)C(=O)N1)[C@@H](C)O)C(=O)N1CCC[C@H]1C(=O)N[C@@H](CO)C(=O)N[C@@H](CO)C(=O)N[C@H](C(=O)N1CCC[C@H]1C(=O)N[C@H](C(=O)NCC(=O)N[C@@H](CO)C(=O)N[C@@H](CC(N)=O)C(=O)N[C@H](C(=O)N[C@@H](Cc1ccc(O)cc1)C(N)=O)[C@@H](C)O)C(C)C)[C@@H](C)O
notes: also called compound 61

Biological target: T1, human amylin receptor (human calcitonin …)
Test: ratio of hCTR binding IC50 to hAmylin-R binding IC50 (reference: human calcitonin receptor)
Protocol: The resulting pellet was resuspended, homogenized and centrifuged (20.000 rpm, 15 min) in a buffer containing 20 mM Na-HEPES and 0.1 mM EDTA (pH 7.4, buffer 2). The resulting pellet was resuspended in buffer 2 and protein concentration was measured (BCA protein Assay, Pierce). The homogenate was kept cold during the whole procedure. The membranes were kept at −80° C. until use. The assay was performed in a 384 well Optiplate (PerkinElmer) in a total volume of 40 ul. Membranes were mixed with SPA beads. Final concentration of membranes 35 ng/μL final and SPA beads was 0.05 mg/well. Test-compounds were dissolved in DMSO and further diluted in assay buffer (50 mM Hepes, pH 7.4, 1 mM CaCl2, 5 mM MgCl₂, 0.1% OA and 0.02% Tween20). […] The final mixture was incubated with shaking at 400 rpm for 120 min at 25° C. prior to centrifugation (1500 rpm, 10 min). Samples were analyzed on TopCounter™ (Packard). The IC₅₀ was calculated using (one site binding competition analysis) GraphPad Prism5 as a measure of receptor affinity.
Membranes were prepared in the following way; the cells were rinsed with PBS and incubated with Versene for approximately 5 min before harvesting. The cells were flushed with PBS and the cell-suspension was centrifuged for 5 min at 1000 rpm. Cells were homogenized (Ultrathurrax) in a buffer containing 20 mM Na-HEPES and 10 mM EDTA (pH 7.4) and centrifuged at 20.000 rpm for 15 min. The resulting pellet was resuspended, homogenized and centrifuged (20.000 rpm, 15 min) in a buffer containing 20 mM Na-HEPES and 0.1 mM EDTA (pH 7.4, buffer 2). The resulting pellet was resuspended in buffer 2 and protein concentration was measured (BCA protein Assay, Pierce). The homogenate was kept cold during the whole procedure. The membranes were kept at −80° C. until use. Assay was performed in a 384 well Optiplate (PerkinElmer) in a total volume of 40 ul. Membranes were mixed with SPA beads.

Row | Binder | Ratio hCT/hAmylin binding
1 | B1 | 36
2 | B2 | 82.4
3 | B3 | 64.4
4 | B4 | 157
5 | B5 | 66.7

Biological target: T2, human calcitonin receptor
Test: SPA competition against 125I-calcitonin, membranes with human calcitonin receptor (Assay VII)
How it was run: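 BHK hCTR membranes 35 ng/μL + SPA beads 0.05 mg/well; buffer 50 mM Hepes pH 7.4, 1 mM CaCl2, 5 mM MgCl₂, 0.1% OA, 0.02% Tween20. 120 min, 25° C., shaking. Scintillation count; IC50 by one-site binding competition.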

Row | Binder | IC50 [nM]
6 | B1 | 1.38
7 | B2 | 53.5
8 | B3 | 5.66
9 | B4 | 130
10 | B5 | 8.11
